# Reference: patent US8357515
# Test system: LAP-MMP IL-4
# Sequence of MMP-1, recombinant (P03956 100-469): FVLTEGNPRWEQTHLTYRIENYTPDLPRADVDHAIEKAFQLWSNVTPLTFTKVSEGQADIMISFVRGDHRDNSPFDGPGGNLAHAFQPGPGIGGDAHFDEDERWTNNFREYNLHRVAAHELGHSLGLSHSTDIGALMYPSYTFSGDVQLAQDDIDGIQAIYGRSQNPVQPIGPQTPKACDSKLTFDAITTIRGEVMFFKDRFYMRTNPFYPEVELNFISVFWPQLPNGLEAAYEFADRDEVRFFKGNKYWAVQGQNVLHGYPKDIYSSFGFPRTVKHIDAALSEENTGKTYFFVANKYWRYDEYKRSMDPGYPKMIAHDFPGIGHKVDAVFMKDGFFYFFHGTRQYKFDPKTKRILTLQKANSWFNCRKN
substance,measurement,value
"MMP-1, recombinant","cleavage of the fusion protein in 293T supernatant after overnight incubation at 37 C, Western blot probed with anti-IL-4 antibody",LAP-MMP IL-4 is only cleaved by MMP-1
